The labels stand for the following.
B1: 17A5 (VHH)
VHH: EVQLVESGGGLVQPGGSLRLSCAASGFTFDDYSMSWVRQATGKGLEWVSGISWNGGSTNYADSVKGRFTISRDNVKNTLYLQMNSLKSEDTAVYYCAKDLGNSGRGPYTNWGQGTQVTVSS
notes: C-term myc-His6 tag
B2: 17A3 (VHH)
VHH: EVQLVESGGGLVQAGGSLSLSCAASATLHRFDNNWYRQAPGKQRELVATIAHDGSTNYANSVKGRFTISRDNARDTLFLQMHALQPEDTAVYMCNLHRWGLNYWGQGTQVTVSS
notes: C-term myc-His6 tag
B3: 47E5 (VHH)
VHH: EVQLVESGGGLVQAGGSLRLSCAASASIFGFDSMGWYRQAPGNERILVAIISNGGTTSYRDSVKGRFTIARDNAKNTVSLQMNSLKPEDTAVYYCNLDRRSYNGRQYWGQGTQVTVSS
notes: C-term myc-His6 tag
B4: 17G11 (VHH)
VHH: EVQLVESGGGLVQAGGSLRLSCAASGSTFSINRWGWYRQAPGKQRELVAAIDDGGNTEYSDFVNGRFTISRDNPETAVHLQMNSLKLEDTAVYYCNAKQLPYLQNFWGQGTQVTVSS
notes: C-term myc-His6 tag
B5: 17A6 (VHH)
VHH: EVQLVESGGGLVQPGGSLRLSCAASGFTFSSYAMSWVRQAPGKGLEWVSAISSGGGSITTYADSVKGRFTISTDNAKNTLYLQMSSLKPEDTALYYCAKARSSSSYYDFGSWGQGTQVTVSS
notes: C-term myc-His6 tag
B6: 27B3 (VHH)
VHH: EVQLVESGGGLVQAGGSLTLSCTASETTVRIRTMAWYRQPPGNQREWVATIGSNGFATYPDSVKGRFTISRDNAKNTVYLQMNSLKPEDTAVYYCRDINRDIWGQGSQVTVSS
notes: C-term myc-His6 tag
B7: 27D6 (VHH)
VHH: B6 VHH
notes: C-term myc-His6 tag
B8: 30D10 (second entry, SEQ ID NO: 2204) (VHH)
VHH: B6 VHH
notes: C-term myc-His6 tag
B9: 27E5 (VHH)
VHH: B6 VHH
notes: C-term myc-His6 tag
B10: 13C2 (VHH)
VHH: EVQLVESGGGLVQAGGSLRLSCAASGSTFSINRMAWYRQSPGKQRELVAAVDNDDNTEYSDSVAGRFTISRDNAKNAVHLQMNSLRLEDTAVYYCNAKQLPYLQNFWGQGTQVTVSS
notes: C-term myc-His6 tag
B11: 46D4 (VHH)
VHH: EVQLVESGGGLVQPGGSLRLSCAASGFIFDDYAMSWVRQAPGKGLEWVSSINWSGTHTDYAEDMKGRFTISRDNAKKTLYLQMNSLQSEDTAVYYCAKGWGPAVTSIPVATLGTQVTVSS
notes: C-term myc-His6 tag
B12: 14D4 (VHH)
VHH: EVQLVESGGGLVQAGDSLRLSCAASGRALDTYVMGWFRQAPGDGREFVAHIFRSGITSYASSVKGRFTISRDNAKNTVYLQMASLKPEDTAAYYCAARPSDTTWSESSASWGQGTQVTVSS
notes: C-term myc-His6 tag
B13: 17D7 (VHH)
VHH: EVQLVESGGGLVQPGGSLRLSCAASGFTLDYCAIGWFRQAPGKEREGVSCISSSDGSTYYADSVKGRFTISRDNAKNTVYLQMNSLKPEDTAVYYCATDRGSGTCYADFGSWGQGTQVTVSS
notes: C-term myc-His6 tag
B14: 15D10 (VHH)
VHH: EVQLVESGGGLVQPGGSLKLSCAASGFTFSSYRMYWVRQAPGKGLEWVSAIKPDGSITYYADSVKGRFTISRDNAKNTVYLQMNSLKPEDTAVYYCATDCGVPGFGWTFSSWGQGTQVTVSS
notes: C-term myc-His6 tag

The experiment concerns the target T1, recombinant human ErbB2/Fc chimera (human, UniProt P04626 23-652).
T1 construct: bought from R&D Systems; also called rhErbB2-Fc; rhErb2-Fc; Fc part of the bought chimera not given; not described
Kind of experiment: ELISA, coated ErbB2/Fc.
For B1, the binding result is “binds”.

B2: the binding result is “binds”.

For the molecule B3, the binding result is “binds”.

For B4, the binding result is “binds”.

For B5, the binding result is on record as “binds”.

For B6, the binding result is “binds”.

B7: the binding result is reported as “binds”.

Regarding B8, the binding result is “binds”.

As to B9, the binding result is listed as “binds”.

Consider B10, for which the binding result is on record as “binds”.

Consider B11, for which the binding result is given as “binds”.

In the case of B12, the binding result is listed as “binds”.

With B13, the binding result is “binds”.

Turning to B14, the binding result was “binds”.

The values above are taken from patent US20150232562A1 (Ablynx, published 2015).
